Experimental data published in US20250387474A1.

Columns and labels:
human IL-13Rα2 (human) [1] = target: human IL-13Rα2 (human) (UniProt Q14627); experiment: SPR on immobilized ligands with receptors as flow analytes using MCK, top trace marked 250 nM
human IL-13Rα1 (human) [2] = target: human IL-13Rα1 (human) (UniProt P78552); experiment: SPR on immobilized ligands with receptors as flow analytes using MCK, top trace marked 1000 nM
human IL-13Rα1 (human) [3] = target: human IL-13Rα1 (human) (UniProt P78552); experiment: SPR, construct captured on anti-human IgG (Fc) antibody on a CM5 chip, human receptor as analyte
human IL-13Rα2 (human) [4] = target: human IL-13Rα2 (human) (UniProt Q14627); experiment: as above
[5] = target: T1, human IL-2R beta (CD122) (human) (UniProt P14784); experiment: BLI (Octet)
T1 sequence (looked up): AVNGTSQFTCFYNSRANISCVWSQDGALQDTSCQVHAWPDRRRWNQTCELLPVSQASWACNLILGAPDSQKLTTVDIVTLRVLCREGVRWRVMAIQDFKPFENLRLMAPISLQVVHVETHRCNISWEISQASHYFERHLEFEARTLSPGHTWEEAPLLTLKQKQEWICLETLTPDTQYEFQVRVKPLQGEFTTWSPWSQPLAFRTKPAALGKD

human IL-13Rα2 (human), sequence (Q14627 27-343 limits assumed): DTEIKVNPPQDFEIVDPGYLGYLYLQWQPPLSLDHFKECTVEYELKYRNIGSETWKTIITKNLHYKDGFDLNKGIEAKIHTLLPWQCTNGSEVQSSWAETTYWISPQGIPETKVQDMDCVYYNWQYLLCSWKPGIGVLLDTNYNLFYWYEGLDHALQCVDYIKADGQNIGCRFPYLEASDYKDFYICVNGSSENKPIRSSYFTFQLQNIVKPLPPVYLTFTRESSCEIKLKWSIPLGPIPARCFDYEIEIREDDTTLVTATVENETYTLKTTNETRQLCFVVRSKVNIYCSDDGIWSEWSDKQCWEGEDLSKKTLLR
human IL-13Rα1 (human), sequence (P78552 22-343 limits assumed): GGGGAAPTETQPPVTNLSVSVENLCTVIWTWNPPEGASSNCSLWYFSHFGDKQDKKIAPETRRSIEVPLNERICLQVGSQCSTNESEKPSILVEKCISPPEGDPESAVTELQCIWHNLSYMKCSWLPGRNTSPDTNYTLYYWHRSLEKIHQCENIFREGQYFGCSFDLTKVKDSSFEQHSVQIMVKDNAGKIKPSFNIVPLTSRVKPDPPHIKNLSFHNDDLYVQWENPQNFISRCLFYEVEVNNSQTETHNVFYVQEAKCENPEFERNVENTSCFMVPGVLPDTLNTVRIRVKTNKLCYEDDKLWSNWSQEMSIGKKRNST

Fc-IL13 (wild-type IL-13 with Fc tag, comparator; format not stated) (Fc fusion)
Kd (human IL-13Rα2 (human) [1]): 0.69 nM
Kd (human IL-13Rα1 (human) [2]): 202 nM
Kd (human IL-13Rα1 (human) [3]): 237 nM
Kd (human IL-13Rα2 (human) [4]): 0.6 nM

MDNA11 (MDNA109FEAA-Albumin)
Kd [5]: 11 nM

VivoTag800-MDNA11
Kd [5]: 7 nM
